Consider four molecules from paper PMC8696220 (Cancer Communications, 2021).

For one assay, the target named is His-Fascin (human, UniProt Q16658 1-493). In words: pull-down.
For a further assay, the target named is GST-Fascin (human, UniProt Q16658 1-493). The experiment in a line: pull-down.

B1: GST-fused N-terminal (1-492) domain of PCAF (domain or fragment)
chain: MSEAGGAGPGGCGAGAGAGAGPGALPPQPAALPPAPPQGSPCAAAAGGSGACGPATAVAAAGTAEGPGGGGSARIAVKKAQLRSAPRAKKLEKLGVYSACKAEESCKCNGWKNPNPSPTPPRADLQQIIVSLTESCRSCSHALAAHVSHLENVSEEEMNRLLGIVLDVEYLFTCVHKEEDADTKQVYFYLFKLLRKSILQRGKPVVEGSLEKKPPFEKPSIEQGVNNFVQYKFSHLPAKERQTIVELAKMFLNRINYWHLEAPSQRRLRSPNDDISGYKENYTRWLCYCNVPQFCDSLPRYETTQVFGRTLLRSVFTVMRRQLLEQARQEKDKLPLEKRTLILTHFPKFLSMLEEEVYSQNSPIWDQDFLSASSRTSQLGIQTVINPPPVAGTISYNSTSSSLEQPNAGSSSPACKASSGLEANPGEKRKMTDSHVLEEAKKPRVMGDIPMELINEVMSTITDPAAMLGPETNFLSAHSARDEAARLEERRG
Turning to B1, in the assay with His-Fascin, the binding result is on record as “binds”.

B2: GST-fused C-terminal BROMO (659-832) domain of PCAF (domain or fragment)
chain: FSVIIKKQKEIIKKLIERKQAQIRKVYPGLSCFKDGVRQIPIESIPGIRETGWKPSGKEKSKEPRDPDQLYSTLKSILQQVKSHQSAWPFMEPVKRTEAPGYYEVIRFPMDLKTMSERLKNRYYVSKKLFMADLQRVFTNCKEYNPPESEYYKCANILEKFFFSKIKEAGLIDK
As to B2, the binding result with His-Fascin was “binds”.

B3: GST-PCAF (enzyme)
chain: MSEAGGAGPGGCGAGAGAGAGPGALPPQPAALPPAPPQGSPCAAAAGGSGACGPATAVAAAGTAEGPGGGGSARIAVKKAQLRSAPRAKKLEKLGVYSACKAEESCKCNGWKNPNPSPTPPRADLQQIIVSLTESCRSCSHALAAHVSHLENVSEEEMNRLLGIVLDVEYLFTCVHKEEDADTKQVYFYLFKLLRKSILQRGKPVVEGSLEKKPPFEKPSIEQGVNNFVQYKFSHLPAKERQTIVELAKMFLNRINYWHLEAPSQRRLRSPNDDISGYKENYTRWLCYCNVPQFCDSLPRYETTQVFGRTLLRSVFTVMRRQLLEQARQEKDKLPLEKRTLILTHFPKFLSMLEEEVYSQNSPIWDQDFLSASSRTSQLGIQTVINPPPVAGTISYNSTSSSLEQPNAGSSSPACKASSGLEANPGEKRKMTDSHVLEEAKKPRVMGDIPMELINEVMSTITDPAAMLGPETNFLSAHSARDEAARLEERRGVIEFHVVGNSLNQKPNKKILMWLVGLQNVFSHQLPRMPKEYITRLVFDPKHKTLALIKDGRVIGGICFRMFPSQGFTEIVFCAVTSNEQVKGYGTHLMNHLKEYHIKHDILNFLTYADEYAIGYFKKQGFSKEIKIPKTKYVGYIKDYEGATLMGCELNPRIPYTEFSVIIKKQKEIIKKLIERKQAQIRKVYPGLSCFKDGVRQIPIESIPGIRETGWKPSGKEKSKEPRDPDQLYSTLKSILQQVKSHQSAWPFMEPVKRTEAPGYYEVIRFPMDLKTMSERLKNRYYVSKKLFMADLQRVFTNCKEYNPPESEYYKCANILEKFFFSKIKEAGLIDK
Turning to B3, in the assay with His-Fascin, the binding result is “binds”.

B4: His-PCAF (enzyme)
chain: MSEAGGAGPGGCGAGAGAGAGPGALPPQPAALPPAPPQGSPCAAAAGGSGACGPATAVAAAGTAEGPGGGGSARIAVKKAQLRSAPRAKKLEKLGVYSACKAEESCKCNGWKNPNPSPTPPRADLQQIIVSLTESCRSCSHALAAHVSHLENVSEEEMNRLLGIVLDVEYLFTCVHKEEDADTKQVYFYLFKLLRKSILQRGKPVVEGSLEKKPPFEKPSIEQGVNNFVQYKFSHLPAKERQTIVELAKMFLNRINYWHLEAPSQRRLRSPNDDISGYKENYTRWLCYCNVPQFCDSLPRYETTQVFGRTLLRSVFTVMRRQLLEQARQEKDKLPLEKRTLILTHFPKFLSMLEEEVYSQNSPIWDQDFLSASSRTSQLGIQTVINPPPVAGTISYNSTSSSLEQPNAGSSSPACKASSGLEANPGEKRKMTDSHVLEEAKKPRVMGDIPMELINEVMSTITDPAAMLGPETNFLSAHSARDEAARLEERRGVIEFHVVGNSLNQKPNKKILMWLVGLQNVFSHQLPRMPKEYITRLVFDPKHKTLALIKDGRVIGGICFRMFPSQGFTEIVFCAVTSNEQVKGYGTHLMNHLKEYHIKHDILNFLTYADEYAIGYFKKQGFSKEIKIPKTKYVGYIKDYEGATLMGCELNPRIPYTEFSVIIKKQKEIIKKLIERKQAQIRKVYPGLSCFKDGVRQIPIESIPGIRETGWKPSGKEKSKEPRDPDQLYSTLKSILQQVKSHQSAWPFMEPVKRTEAPGYYEVIRFPMDLKTMSERLKNRYYVSKKLFMADLQRVFTNCKEYNPPESEYYKCANILEKFFFSKIKEAGLIDK
Consider B4, for which the binding result with GST-Fascin is reported as “binds”.
